Experimental data published in patent US20260125428A1, “SYNTHETIC TRIPLEX PEPTIDE NUCLEIC ACID-BASED INHIBITORS FOR CANCER THERAPY” (University of Connecticut, priority 2022, published 2026).

Legend:
HeLa cells = test: Cellular uptake in HeLa cells (confocal microscopy); type: cell-based; conditions: 24 h, live cells
Experimental: (§1) FIGS. 3A-C show cellular uptake of indicated PNAs. (3A) A confocal image of HeLa cells showing cellular and nuclear uptake of γPNA7-NLS containing TAMRA at 2 μM dose and after 24 h of treatment. (3B) A confocal image of U2932 cells showing cellular and nuclear uptake of γPNA7-NLS containing tetramethylrhodamine (TAMRA) at 2 μM dose and after 24 h of treatment. (3C) A histogram representing flow cytometry results for cellular uptake of γPNA7-NLS in U2932 cells after incubation at different doses for 24 h. The scale bar represents 10 μm.
(§2) Cellular uptake: HeLa and U2932 cells were purchased from ATCC (USA), cultured in EMEM and RPMI media, respectively (Invitrogen, USA), supplemented with […] and 1% Penstrep at 37° C. and 5% CO2.
(§3) Confocal Microscopy: HeLa cells were seeded in 8 chamber slides at 50,000 cells/well. U2932 cells were seeded in 24 well plate at 100,000 cells per well. γPNA7-NLS containing TAMRA was added to the cells at 2 μM concentration. After 24 h, cells were washed with PBS to remove uninternalized PNA. The nucleus of live cells was stained using Hoechst dye and were visualized under confocal microscope (Nikon AIR, USA) while cells are maintained in CO2 independent media. […] Cells were then suspended in PBS and analyzed using LSR Fortessa X-20 cell analyzer (BD Biosciences, USA). The data was analyzed using Flowjo software.

U2932 cells = test: Cellular uptake in U2932 cells (confocal microscopy, flow cytometry); type: cell-based; conditions: 24 h
Experimental: as §1, §2, §3

[1] = Biodistribution in U2932 xenograft mice (IVIS, confocal); type: in vivo
Experimental: FIGS. 5A-D show results of in vivo administration of indicated PNAs. (5A) IVIS® images of xenograft mice bearing tumors at indicated time points after systemic administration of PNA-TAMRA and γPNA7-NLS at 5 mg/kg. (5B) IVIS® imaging of organs harvested from xenograft mice treated with PNA-TAMRA and γPNA7-NLS after 6 h of systemic administration. (5C) Quantification of fluorescence from the organs harvested from PNA-TAMRA and γPNA7-NLS treated xenograft mice. (5D) Confocal microscopy images of tumor and kidney tissue cryo-sections from PNA-TAMRA and γPNA7-NLS treated U2932 xenograft mice. Scale bar, 30 μm.
FIGS. 6A-C show effect of systemic administration of indicated PNAs. (6A) IVIS® images of xenograft mice bearing tumors at indicated time points after systemic administration of γPNA7-NLS and γPNA6 at 5 mg/kg. (6B) IVIS® imaging of organs harvested from control, γPNA7-NLS, and γPNA6 treated mice after 24 hours of systemic administration. (6C) Confocal imaging of tumor, liver, and kidney sections obtained from xenograft mice after 24 h of treatment with γPNA7-NLS and γPNA6. Scale bar is 30 μm.
In vivo studies in xenograft mice model: U2932 derived xenografts were generated by implanting 10 million cells subcutaneously on the lower right flank of the female NSG mice (NOD.Cg-Prkdc^scidIl2rg^tm1Wj1/SzJ, #005557, Jackson Laboratories, USA) of 5-6 weeks. The mice were maintained in the animal care facility at the University of Connecticut following the required Institutional Animal Care and Use Committee guidelines (IACUC). Mice developed palpable tumors after 3-4 weeks of implantation. Tumor dimensions including length (l), breadth (b), and height (h) were measured using a caliper and volume was calculated using the formula for ellipsoid (0.5236×lbh).
Biodistribution studies: Mice with 600-800 mm^3 tumor volume were used for the biodistribution studies. γPNA7-NLS, γPNA6 and regular PNA-TAMRA (23 mer with 3 arginine residues) was injected systemically (retro-orbital) at 5 mg/kg dose. Live imaging of animals was performed using in vivo imaging (IVIS®) spectrum CT and epifluorescence was recorded at excitation/emission wavelength of 549/578 nm at 0, 0.25, 1, 2, 4, 6, 8 and 24 h. Mice were euthanized after 6 h and 24 h. Organs were collected and imaged via IVIS® to determine organ localization of PNA. Further organs were frozen in optimum cutting temperature media (OCT) at −80° C. The tumor, liver, and kidney from treated and untreated mice were sectioned using a cryostat to obtain 10 μm tissue sections. The sections were washed in PBS followed by fixation in 10% neutral buffered formalin. After washing with PBS, sections were permeabilized using 0.2% Triton™-X. The nucleus was stained using mounting media with DAPI (Invitrogen, USA). Sections were allowed to harden overnight, and images were taken using 60× oil lens on a Nikon AIR confocal microscope.

[2] = Biodistribution in transgenic Ep-myc mice (IVIS, confocal); type: in vivo; conditions: 24 hours
Experimental: FIGS. 8A-D show organ distribution after intravenous and subcutaneous administration of indicated PNAs. (8A) The organ distribution of γPNA-NLS TAMRA after intravenous (IV) and subcutaneous (SC) administration in transgenic mice model of B-cell lymphoma (Ep-myc). γPNA-NLS TAMRA was administered at 5 mg/kg via IV and SC route and organ distribution was determined via IVIS imaging after 24 h. (8B) Confocal microscopy images of different lymph nodes (LNs) after IV and SC injection of γPNA-NLS TAMRA. Blue indicates DAPI and red indicated TAMRA. Scale bar, 30 μm. (8C) C-myc protein levels in brachial lymph nodes of γPNA5-NLS treated mice in comparison to the control (untreated mice). N=4 mice per group. (8D) C-myc protein levels in axillary lymph nodes of γPNA5-NLS treated mice in comparison to the control (untreated mice). N=4 mice per group. Transgenic or Ep-myc mice were treated with γPNA5-NLS at 60 mg/kg dose over 2 days and mice were euthanized on day 3 for analysis.
In vivo studies in transgenic mice model: Ep-myc mice model of Burkitt lymphoma (B6.Cg-Tg(IgHMyc)22Bri/J, #002728, Jackson laboratories) which overexpresses c-myc was also used to test the efficacy of the designed PNA-NLS.
Biodistribution study: γPNA7-NLS containing TAMRA was administered via retro-orbital and subcutaneous route at 5 mg/kg dose in mice with visibly enlarged lymph nodes (cervical, brachial, axillary, and inguinal). Mice were euthanized after 24 h and organs were collected followed by imaging via IVIS®. All major organs and enlarged lymph nodes were collected and frozen in OCT media. The lymph nodes and organs were sectioned at 10 μm thickness using cryostat. The sections were then fixed, permeabilized and nucleus was stained with DAPI. The localization of PNA in lymph nodes was studied via confocal microscopy. Images were taken using 60× oil lens on a AIR confocal microscope.

[3] = organs harvested after 6 h, 5 mg/kg
[4] = xenograft mice, 5 mg/kg systemic, imaged up to 24 h

Question: Which “cellular uptake, cytoplasm (confocal)” value (HeLa cells) does the source give for “X3TCCCTCCCTCCGTTCTTTTTTCCCX7 (gamma PNA; NLS peptide; C-terminal TAMRA; gammaPNA to target; misc_feature 1 JJJTJJJT-linker- is covalently linked to the backbone, wherein J is pseudoisocytosine and the linker is 11-Amino-3,6,9-Trioxaundecanoic Acid (DCHA), represented as -OOO-; misc_feature 24 -K-linker-SEQ ID NO: 5-linker-label is covalently linked to the backbone, wherein the linker is 11-Amino-3,6,9-Trioxaundecanoic Acid (DCHA), represented as -OOO-, and the label i) [γPNA7-NLS]” here?
Answer: The value was “significant accumulation of γPNA7-NLS in the cytoplasm”.

Question: And the “nuclear uptake (confocal, TAMRA overlap with Hoechst)” value (HeLa cells)?
Answer: Its value is “accumulation of γPNA7-NLS within the nucleus”.

Question: What about the “cellular and nuclear uptake (confocal)” value (U2932 cells) of the same substance?
Answer: Its value is “accumulation of γPNA7-NLS in both the nucleus and cytoplasm”.

Question: What about the “cellular uptake by flow cytometry” value (U2932 cells; different doses) of the same substance?
Answer: Its value is “dose dependent increase in cellular uptake”.

Question: And the “accumulation in tumor (confocal microscopy of cryo-sections)” value ([1]; 6 h, 5 mg/kg)?
Answer: The value was “superior accumulation”.

Question: What about the “TAMRA intensity from harvested tumors (IVIS)” value ([1]; 6 h after systemic administration, 5 mg/kg) of the same substance?
Answer: The value was “significant TAMRA intensity”.

Question: What about the “accumulation in tumors in comparison to γPNA6 (confocal imaging)” value ([1]; 24 h, 5 mg/kg) of the same substance?
Answer: Its value is “significantly higher accumulation in tumors”.

Question: And the “fluorescence signal of harvested tumors in comparison to γPNA6 (IVIS)” value ([1]; 24 h after systemic administration, 5 mg/kg)?
Answer: The value was “higher fluorescence signal”.

Question: What about the “accumulation in tumor in comparison to liver, kidney, and intestine” value [1, 3] of the same substance?
Answer: Its value is “higher in comparison to the other organs”.

Question: And the “accumulation in tumors in comparison to PNA-TAMRA (quantified fluorescence)” value [1, 3]?
Answer: Its value is “more than 6 fold”.

Question: What about the “tumor accumulation until (live IVIS imaging)” value ([1]; xenograft mice, 5 mg/kg retro-orbital, imaged up to 6 h) of the same substance?
Answer: Its value is 6 h.

Question: What about the “retained within the tumors until (live IVIS imaging)” value [1, 4] of the same substance?
Answer: The value was 24 h.

Question: And the “significant accumulation in tumors starting from (live IVIS imaging)” value [1, 4]?
Answer: The value was 0.25 h.

Question: What about the “accumulation in lymph nodes after IV administration (confocal)” value ([2]; 5 mg/kg IV) of the same substance?
Answer: Its value is “minimal accumulation in the lymph nodes”.

Question: What about the “accumulation in lymph nodes after SC administration (confocal)” value ([2]; 5 mg/kg SC) of the same substance?
Answer: Its value is “accumulated significantly in multiple lymph nodes”.

Question: What about the “accumulation in lymph nodes, SC route in comparison to IV route (IVIS)” value ([2]; 5 mg/kg) of the same substance?
Answer: Its value is “significantly higher accumulation”.
